Some targets named below: GST-CIN85-SH3A; GST-CIN85-SH3B; GST-CIN85-SH3C.
What all share (test): SPR; proteins immobilized via an N-terminal GST-tag, peptides as analyte; Biacore T200, steady-state affinity
(In general: In SPR one partner is held on a chip, and binding of the other changes the refractive index at the surface.)

A further assay concerns the target T1, GST-CIN85 full-length (UniProt Q96B97 1-665).
T1 construct: CIN85 full-length; also called CIN85 FL; source: recombinant, purified (preparation in the Supplemental Information); not shown: GST, N-terminal, kept
Conditions: both partners purified.

In another assay the target is T2, GST-CBL-Y371S (47–435) (UniProt P22681 47-435, Y371S).
T2 construct: CBL fragment, residues 47-435, with the MDS/MPN mutation Y371S; also called CBL-Y371S fragment; source: recombinant, purified (preparation in the Supplemental Information); not shown: GST, N-terminal, kept
T2 sequence (looked up): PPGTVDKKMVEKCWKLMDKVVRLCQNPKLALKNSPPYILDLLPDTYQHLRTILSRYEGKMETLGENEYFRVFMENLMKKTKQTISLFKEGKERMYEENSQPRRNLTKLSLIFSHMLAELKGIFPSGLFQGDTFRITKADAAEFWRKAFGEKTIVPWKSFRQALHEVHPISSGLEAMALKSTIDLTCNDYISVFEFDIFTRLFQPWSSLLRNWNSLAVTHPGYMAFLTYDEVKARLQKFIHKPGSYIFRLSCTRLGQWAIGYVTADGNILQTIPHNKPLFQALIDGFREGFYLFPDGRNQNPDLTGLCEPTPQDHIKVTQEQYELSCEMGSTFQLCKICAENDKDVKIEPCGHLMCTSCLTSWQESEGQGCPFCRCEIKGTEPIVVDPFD
Conditions: both partners purified.

The target of another assay is T3, GST-WT-CBL (47–435) (UniProt P22681 47-435).
T3 construct: CBL fragment, residues 47-435; also called WT-CBL fragment; source: recombinant, purified (preparation in the Supplemental Information); not shown: GST, N-terminal, kept
T3 sequence (looked up): T2 sequence (looked up) with S325Y
Conditions: both partners purified.

Positions count from the first letter of the chain named. Non-standard residues stand in square brackets, D forms with d. No end group written: not given here. pY = N[C@@H](Cc1ccc(OP(=O)(O)O)cc1)C(=O)O

T1 sequence (Q96B97 whole entry): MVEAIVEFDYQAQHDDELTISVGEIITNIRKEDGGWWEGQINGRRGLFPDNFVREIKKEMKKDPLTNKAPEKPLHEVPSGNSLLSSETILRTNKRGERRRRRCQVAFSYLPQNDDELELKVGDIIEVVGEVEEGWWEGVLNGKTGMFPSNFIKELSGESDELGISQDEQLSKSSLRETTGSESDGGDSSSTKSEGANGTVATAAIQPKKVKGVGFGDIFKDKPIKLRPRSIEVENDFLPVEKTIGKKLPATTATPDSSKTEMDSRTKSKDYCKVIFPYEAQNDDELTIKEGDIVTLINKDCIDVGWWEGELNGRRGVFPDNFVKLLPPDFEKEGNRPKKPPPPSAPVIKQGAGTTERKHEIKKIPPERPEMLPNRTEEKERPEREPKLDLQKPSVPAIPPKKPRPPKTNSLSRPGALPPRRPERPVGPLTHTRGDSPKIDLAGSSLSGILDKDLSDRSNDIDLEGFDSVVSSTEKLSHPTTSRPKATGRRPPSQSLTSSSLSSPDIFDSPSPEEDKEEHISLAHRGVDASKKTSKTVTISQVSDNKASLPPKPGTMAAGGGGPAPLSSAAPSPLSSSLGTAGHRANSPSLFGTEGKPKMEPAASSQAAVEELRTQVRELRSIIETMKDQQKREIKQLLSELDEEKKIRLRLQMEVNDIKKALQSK

Regarding PERPPKPFPRRIN (also called proline-rich peptide of CBL) [PepC1], the Kd with GST-CIN85-SH3A turned out to be 35.6 µM; with GST-CIN85-SH3B, 2300 nM; in the assay with GST-CIN85-SH3C it was 68 µM; with GST-CIN85 full-length, 5.5 µM.

B1: tyrosine-phosphorylated EGFR peptide (peptide)
peptide: LQR[pY]SSDPTGA
notes: EGFR peptide with a phosphotyrosine; also called pY-EGFR peptide
As to B1, the Kd in the assay with GST-CBL-Y371S (47–435) turned out to be 600 nM; with GST-WT-CBL (47–435), 1200 nM.

In general, Kd refers to the constant that tells how readily two partners part at equilibrium.

These data come from article PMC7994203, “E3 ligase-inactivation rewires CBL interactome to elicit oncogenesis by hijacking RTK–CBL–CIN85 axis” (Oncogene, 2021).
